From article PMC11203719, “Mts1 (S100A4) and Its Peptide Demonstrate Cytotoxic Activity in Complex with Tag7 (PGLYRP1) Peptide” (International Journal of Molecular Sciences, 2024) come the findings set out here.

This experiment deals with T1, Tag7 (PGLYRP1) protein, recombinant (UniProt O88593).
T1 sequence (O88593 1-182, species assumed, looked up): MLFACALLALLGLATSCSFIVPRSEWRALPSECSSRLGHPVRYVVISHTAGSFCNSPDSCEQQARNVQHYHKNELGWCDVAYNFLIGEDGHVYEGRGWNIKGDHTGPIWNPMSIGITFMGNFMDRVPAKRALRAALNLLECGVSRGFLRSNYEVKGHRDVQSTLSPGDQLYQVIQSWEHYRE
Nature of the experiment: MST; Tag7 labelled with Alexa Fluor 488 (200 nM), preincubated 20 min in the dark at room temperature with 16 concentrations of M7; Monolith NT.115, 10% IR laser power.

Regarding ELPSFLGKRTDEAAFQK [M7 peptide of Mts1 (S100A4)], the Kd (in general, the concentration at which binding is half-saturated) was found to be 2.96 nM.
